Reference: patent publication US20230028110A1 (ADAPTATE BIOTHERAPEUTICS, published 2023)
Values belong to the binder of their own block, whether it stands above or below them.

Columns and labels:
[1] = target: T1, Vδ1 chain of the γδ TCR on human Vδ1 γδ T cells (human); experiment: flow cytometry on Vδ1 γδ T-cells, anti-human IgG secondary antibody, % cells bound IgG
T1 construct: whole, on cells; also called cell surface Vδ1 TCR; Vδ1-positive γδ T cells

[2] = target: T2, OX40 on OX40+ NFAT Jurkat cells (human, UniProt P43489); experiment: cell-based or functional assay
T2 sequence (receptor, looked up): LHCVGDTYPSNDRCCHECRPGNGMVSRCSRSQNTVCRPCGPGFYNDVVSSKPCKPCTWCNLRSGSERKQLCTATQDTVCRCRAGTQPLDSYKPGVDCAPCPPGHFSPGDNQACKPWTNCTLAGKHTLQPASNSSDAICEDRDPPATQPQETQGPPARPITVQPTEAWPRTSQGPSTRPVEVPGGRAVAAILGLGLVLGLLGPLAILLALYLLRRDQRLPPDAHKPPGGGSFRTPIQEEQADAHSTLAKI

[3] = target: T3, L1 (DV1-GV4), soluble human Vδ1/Vγ4 γδ TCR heterodimer in leucine zipper format (human); experiment: SPR (Reichert 4SPR), antibody on Protein A chip, antigen flown over
T3 construct: Biotinylated in the DELFIA ranking; also called Antigen L1 (TRDV1/TRGV4); human DV1-GV4; not shown: gamma chain: Vγ4 (TRGV4) domain on a TCR constant region, leucine zipper, histidine tag

Recombinant human OX40 = target: T4, Recombinant human OX40 (human, UniProt P43489 29-216, limits assumed); experiment: as above
T4 construct: also called CD134
T4 sequence (looked up): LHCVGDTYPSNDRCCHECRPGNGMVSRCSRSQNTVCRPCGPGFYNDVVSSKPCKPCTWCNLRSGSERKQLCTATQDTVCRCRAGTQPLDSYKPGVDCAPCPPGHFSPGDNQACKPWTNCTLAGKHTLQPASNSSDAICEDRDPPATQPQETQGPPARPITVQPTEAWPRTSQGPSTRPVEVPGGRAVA
Protocol: Recombinant human Vδ1 heterodimer or human OX40 was flown over the cell at a top concentration of 100 nM.

[4] = target: T5, OX40 on activated CD4 T-cells; experiment: flow cytometry on anti-CD3/anti-CD28-activated CD4 T-cells, anti-human IgG secondary antibody, % cells bound IgG
T5 construct: also called OX40+ CD4 T-cells
T5 chain: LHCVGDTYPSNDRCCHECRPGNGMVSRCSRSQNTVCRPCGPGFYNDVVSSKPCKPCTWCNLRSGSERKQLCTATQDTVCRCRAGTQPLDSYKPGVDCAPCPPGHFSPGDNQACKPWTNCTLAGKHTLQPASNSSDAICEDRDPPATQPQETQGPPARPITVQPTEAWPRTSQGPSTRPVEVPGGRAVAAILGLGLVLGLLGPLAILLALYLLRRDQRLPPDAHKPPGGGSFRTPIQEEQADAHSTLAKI
Protocol: Initially CD4+ T-cells were negatively selected by magnetic sorting from PBMC buffy coats extracted from whole blood. Following activation by anti-CD3/anti-CD28 antibodies conjugated to Dynabeads (Invitrogen), cell surface expression of OX40 was elevated on CD4 T-cells. […] After washing, cells were incubated for a further 15 minutes with anti-human IgG secondary antibodies before washing and fixing. The amount of antibody bound to each cell type was determined by flow cytometry.

[5] = target: T6, FAPα on FAPα+ fibroblasts (human, UniProt Q12884 1-760); experiment: flow cytometry on BJ fibroblasts, anti-human Fc secondary antibody, % IgG bound cells
T6 construct: whole, on cells; also called FAPα+ target cells (BJ fibroblasts, human dermal fibroblasts)
Protocol: (§1) After washing, cells were incubated for a further 15 minutes with anti-human Fc secondary antibodies before washing and fixing. The amount of antibody bound to each cell type was determined by flow cytometry.

[6] = target: T3, L1 (DV1-GV4), soluble human Vδ1/Vγ4 γδ …; experiment: SPR (Reichert 4SPR), antibody on Protein A chip, antigen flown over; remark: listed apart in the source
Protocol: (§2) Recombinant human Vδ1 heterodimer or human FAPα was flown over the cell at a concentration of 100 nM with the following parameters: 180 s association, 480 s dissociation, flowrate 25 μL/min, running buffer PBS+0.05% Tween 20. All experiments were performed at room temperature.

Recombinant human FAPα = Recombinant human FAPα (human, UniProt Q12884 26-760); experiment: as above
Protocol: as §2

[7] = target: T1, Vδ1 chain of the γδ TCR on human Vδ1 γδ …; experiment: flow cytometry on Vδ1 γδ T-cells, anti-human Fc secondary antibody, % IgG bound cells
Protocol: as §1

[8] = target: T3, L1 (DV1-GV4), soluble human Vδ1/Vγ4 γδ …; experiment: SPR (Reichert 4SPR), antibody on Protein A chip, antigen flown over; remark: listed apart in the source
Protocol: (§3) Recombinant human Vδ1 heterodimer or human MSLN was flown over the cell at a top concentration of 100 nM with the following parameters: 180 s association, 480 s dissociation, flowrate 25 μL/min, running buffer PBS+0.05% Tween 20. All experiments were performed at room temperature.

[9] = target: T1, Vδ1 chain of the γδ TCR on human Vδ1 γδ …; experiment: flow cytometry on Vδ1 γδ T-cells, anti-human IgG secondary antibody, % IgG bound cells
Protocol: (§4) After washing, cells were incubated for a further 15 minutes with anti-human IgG secondary antibodies before washing and fixing. The amount of antibody bound to each cell type was determined by flow cytometry.

Recombinant human MSLN = target: T7, Recombinant human MSLN (human, UniProt Q13421 296-580, limits assumed); experiment: SPR (Reichert 4SPR), antibody on Protein A chip, antigen flown over; column head prints FAPα
T7 construct: also called mesothelin
Protocol: as §3

[10] = target: T3, L1 (DV1-GV4), soluble human Vδ1/Vγ4 γδ …; experiment: SPR (Reichert 4SPR), antibody on Protein A chip, antigen flown over; remark: listed apart in the source
Protocol: (§5) Recombinant human Vδ1 heterodimer or human PD-1 was flown over the cell at a top concentration of 100 nM.

[11] = target: PD-1 on PD-1+ NFAT Jurkat cells (Promega, JA2191) (UniProt Q15116 25-288, limits assumed); experiment: cell-based or functional assay
Recombinant human PD-1 = target: T8, Recombinant human PD-1 (human, UniProt Q15116 25-167, limits assumed); experiment: SPR (Reichert 4SPR), antibody on Protein A chip, antigen flown over; column head prints TIGIT
T8 construct: also called programmed cell death protein 1
Protocol: as §5

[12] = target: T1, Vδ1 chain of the γδ TCR on human Vδ1 γδ …; experiment: flow cytometry on Vδ1 γδ T-cells, anti-human IgG secondary antibody, % cells bound IgG; remark: listed apart in the source
Protocol: as §4

[13] = target: T3, L1 (DV1-GV4), soluble human Vδ1/Vγ4 γδ …; experiment: SPR (Reichert 4SPR), antibody on Protein A chip, Vδ1 heterodimer at 6.25-100 nM as analyte
[14] = target: T9, Cyno DV1/GV77 antigen, recombinant cynomolgus Vδ1 heterodimer (cynomolgus monkey); experiment: as above
T9 construct: also called cyno TRDV1; Cyno DV1-77; not shown: delta CDR3/J, TCR constant region, zipper and tag; the whole gamma chain GV77

[15] = target: T3, L1 (DV1-GV4), soluble human Vδ1/Vγ4 γδ …; experiment: DELFIA, 100 nM biotinylated L1
[16] = target: T10, Her2 on Her2+ breast cancer cells (SK-BR-3, BT-474) (human, UniProt P04626 23-1255); experiment: flow cytometry on SK-BR-3 cells, anti-human IgG secondary antibody
T10 construct: whole, on cells; also called ErbB-2; CD340

[17] = target: T1, Vδ1 chain of the γδ TCR on human Vδ1 γδ …; experiment: cell-based or functional assay
[18] = target: T3, L1 (DV1-GV4), soluble human Vδ1/Vγ4 γδ …; experiment: SPR (Reichert 4SPR), antibody on Protein A chip, human Vδ1 antigen as analyte; average of two replicates on two instruments
Description: The binding affinity of the antibodies to target (i.e. the Vδ1 chain of a γδ TCR) is established by SPR analysis using a Reichert 4SPR instrument (Reichert Technologies).
The binding interaction of Vδ1 and the affinity-matured mAbs were modelled according to Langmuir 1:1 binding.

[19] = target: T1, Vδ1 chain of the γδ TCR on human Vδ1 γδ …; experiment: cell-based or functional assay; remark: listed apart in the source
[20] = target: T3, L1 (DV1-GV4), soluble human Vδ1/Vγ4 γδ …; experiment: DELFIA ELISA, 0.4 nM human TRDV1 antigen; heat map cell of the clone
[21] = target: T1, Vδ1 chain of the γδ TCR on human Vδ1 γδ …; experiment: flow cytometry binding to Vδ1 γδ T cells, donor ATS006; column head printed 'IC50', unit nM from the chart axis and FIG. 34D
Protocol: (§6) All incubation steps were performed at 4° C. and mAb binding was determined using flow cytometry to measure the median level of fluorescence. Logarithmic four parameter dose-response curves were fitted using GraphPad Prism 9. […] For Vδ1-positive γδ T cell, data is represented as the mean two donors.
(§7) A range of target cells were assayed to determine the specificity and affinity of Vδ1 mAb binding. This included expanded skin-derived Vδ1 γδ T-cells, HEK293T cells, Raji cells, and multiple leukocyte subsets within human primary blood mononuclear cells. Adherent or semi-adherent cells (skin-derived Vδ1 γδ T-cells, HEK293T) were detached from tissue culture flask and resuspended in PBS. Similarly, non-adherent cell types (Raji, PBMC), were harvested and resuspended in PBS. Cells were seeded at a final density of 100,000 cells per well in v-bottom 96-well plates. Cells underwent centrifugation and the cell pellets were resuspended in FcR blocking reagent according to the manufacturer's instructions, and incubated for 20 minutes at 4C prior to a further wash. […] To determine the quantity of mAb bound to the cell surface, the cells were then stained with a murine anti-human IgG secondary antibody, conjugated to APC (dilution: 1:100). For Vδ1 γδ T-cells, HEK293T and Raji, the cells were also stained solely with a viability dye.

[22] = target: T3, L1 (DV1-GV4), soluble human Vδ1/Vγ4 γδ …; experiment: DELFIA ELISA on antigen L1 (TRDV1/TRGV4), 1/2 dilution series of mAb
[23] = target: T9, Cyno DV1/GV77 antigen, recombinant …; experiment: DELFIA ELISA, cyno antigen; heat map cell of the clone
[24] = target: T1, Vδ1 chain of the γδ TCR on human Vδ1 γδ …; experiment: flow cytometry binding to Vδ1 γδ T cells, donor TS164; column head printed 'IC50', unit nM from the chart axis and FIG. 34D
Protocol: as §6, §7

[25] = target: T3, L1 (DV1-GV4), soluble human Vδ1/Vγ4 γδ …; experiment: SPR (Reichert 4SPR), antibody on Protein A chip
[26] = target: T9, Cyno DV1/GV77 antigen, recombinant …; experiment: SPR (Reichert 4SPR), antibody on Protein A chip
[27] = target: T3, L1 (DV1-GV4), soluble human Vδ1/Vγ4 γδ …; experiment: SPR, captured IgG, human DV1-GV4 flown over
[28] = target: T3, L1 (DV1-GV4), soluble human Vδ1/Vγ4 γδ …; experiment: SPR (summary table)

T1 sequence (A0A1B0GX56 22-115, stated change not applied): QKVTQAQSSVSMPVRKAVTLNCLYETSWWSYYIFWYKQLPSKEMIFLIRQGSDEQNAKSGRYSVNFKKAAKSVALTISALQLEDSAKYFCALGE
T3 sequence (main, as listed by the source): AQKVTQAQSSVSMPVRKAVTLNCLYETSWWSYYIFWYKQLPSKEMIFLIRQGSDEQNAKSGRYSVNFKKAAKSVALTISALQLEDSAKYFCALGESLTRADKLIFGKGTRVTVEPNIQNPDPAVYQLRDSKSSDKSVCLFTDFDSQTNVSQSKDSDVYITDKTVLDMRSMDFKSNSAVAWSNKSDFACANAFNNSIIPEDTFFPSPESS
T9 sequence (delta, as listed by the source limits assumed): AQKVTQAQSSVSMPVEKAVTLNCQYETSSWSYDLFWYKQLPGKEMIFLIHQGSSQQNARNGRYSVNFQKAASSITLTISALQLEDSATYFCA
T8 sequence (Q15116 25-167 limits assumed): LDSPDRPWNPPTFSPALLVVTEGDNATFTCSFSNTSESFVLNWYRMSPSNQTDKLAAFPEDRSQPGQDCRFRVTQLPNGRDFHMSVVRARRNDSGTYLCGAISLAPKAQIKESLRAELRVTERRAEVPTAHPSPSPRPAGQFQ
PD-1 on PD-1+ NFAT Jurkat cells (Promega, JA2191), sequence (Q15116 25-288 limits assumed): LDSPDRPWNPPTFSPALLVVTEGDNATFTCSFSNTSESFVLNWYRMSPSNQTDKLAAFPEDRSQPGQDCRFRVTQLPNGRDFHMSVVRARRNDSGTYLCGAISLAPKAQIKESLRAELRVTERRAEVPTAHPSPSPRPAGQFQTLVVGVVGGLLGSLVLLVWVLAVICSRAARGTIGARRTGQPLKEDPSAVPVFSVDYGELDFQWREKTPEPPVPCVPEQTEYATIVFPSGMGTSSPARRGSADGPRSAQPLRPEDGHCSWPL
T7 sequence (Q13421 other isoform, or with tags, fused parts or gaps limits assumed): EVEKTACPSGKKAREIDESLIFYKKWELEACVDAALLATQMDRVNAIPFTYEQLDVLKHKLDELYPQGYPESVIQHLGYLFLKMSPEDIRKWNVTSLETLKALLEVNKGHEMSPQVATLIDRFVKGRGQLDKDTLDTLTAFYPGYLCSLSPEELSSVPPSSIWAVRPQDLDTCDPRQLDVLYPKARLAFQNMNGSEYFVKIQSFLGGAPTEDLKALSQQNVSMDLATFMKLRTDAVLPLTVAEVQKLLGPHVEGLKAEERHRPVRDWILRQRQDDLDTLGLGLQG

EC50 (read off the curve) [1]: ~0.3 nM
EC50 (read off the curve), OX40+ NFAT Jurkat activation assay [2]: ~20 nM
Kd [3]: 1.2 nM
Kd (Recombinant human OX40): 1.63 nM
EC50 (read off the curve) [4]: ~2 nM
B1: Anti-Vδ1xanti-OX40 (ADT1-4-2xpogalizumab) bispecific antibody (bispecific antibody, human IgG1, kappa)
light: DIQMTQSPPALSASVGDRVTITCRASQDINDWLAWYQHKPGKAPKLLIYDASSLESGVPLRFSGSGSGTEFTLTISSLQPDDFATYYCQQKYSAPQVTFGQGTRLEIKRTVAAPSVFIFPPSDEQLKSGTASVVCLLNNFYPREAKVQWKVDNALQSGNSQESVTEQDSKDSTYSLSSTLTLSKADYEKHKVYACEVTHQGLSSPVTKSFNRGEC
heavy: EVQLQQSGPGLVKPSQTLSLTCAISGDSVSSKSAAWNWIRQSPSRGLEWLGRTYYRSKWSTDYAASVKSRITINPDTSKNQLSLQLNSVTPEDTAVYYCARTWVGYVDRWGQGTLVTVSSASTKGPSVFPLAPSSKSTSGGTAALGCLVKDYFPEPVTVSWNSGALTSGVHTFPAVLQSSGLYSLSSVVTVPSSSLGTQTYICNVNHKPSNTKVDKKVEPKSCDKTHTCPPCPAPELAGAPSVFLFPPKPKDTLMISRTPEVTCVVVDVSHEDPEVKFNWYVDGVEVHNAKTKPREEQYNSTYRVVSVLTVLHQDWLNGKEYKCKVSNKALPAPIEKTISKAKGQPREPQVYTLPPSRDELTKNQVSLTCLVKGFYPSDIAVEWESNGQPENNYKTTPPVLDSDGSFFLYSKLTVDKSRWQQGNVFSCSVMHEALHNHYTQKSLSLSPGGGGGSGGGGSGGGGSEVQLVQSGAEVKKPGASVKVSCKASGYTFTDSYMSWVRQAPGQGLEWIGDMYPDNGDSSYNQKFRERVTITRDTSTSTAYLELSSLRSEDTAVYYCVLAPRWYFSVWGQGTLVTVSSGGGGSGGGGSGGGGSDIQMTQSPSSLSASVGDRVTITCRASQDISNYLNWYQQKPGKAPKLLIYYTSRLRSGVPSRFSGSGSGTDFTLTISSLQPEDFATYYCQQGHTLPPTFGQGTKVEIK
notes: also called ADT1-4-2xOX40; Vδ1-OX40 bispecific antibody

EC50 (read off the curve) [5]: ~1 nM
Kd [6]: 0.26 nM
Kd (Recombinant human FAPα): 1.4 nM
EC50 (read off the curve) [7]: ~0.5 nM
B2: Anti-Vδ1xFAPα (ADT1-4-2x sibrotuzumab) bispecific antibody (bispecific antibody, human IgG1, kappa)
light: DIQMTQSPPALSASVGDRVTITCRASQDINDWLAWYQHKPGKAPKLLIYDASSLESGVPLRFSGSGSGTEFTLTISSLQPDDFATYYCQQKYSAPQVTFGQGTRLEIKRTVAAPSVFIFPPSDEQLKSGTASVVCLLNNFYPREAKVQWKVDNALQSGNSQESVTEQDSKDSTYSLSSTLTLSKADYEKHKVYACEVTHQGLSSPVTKSFNRGEC
heavy: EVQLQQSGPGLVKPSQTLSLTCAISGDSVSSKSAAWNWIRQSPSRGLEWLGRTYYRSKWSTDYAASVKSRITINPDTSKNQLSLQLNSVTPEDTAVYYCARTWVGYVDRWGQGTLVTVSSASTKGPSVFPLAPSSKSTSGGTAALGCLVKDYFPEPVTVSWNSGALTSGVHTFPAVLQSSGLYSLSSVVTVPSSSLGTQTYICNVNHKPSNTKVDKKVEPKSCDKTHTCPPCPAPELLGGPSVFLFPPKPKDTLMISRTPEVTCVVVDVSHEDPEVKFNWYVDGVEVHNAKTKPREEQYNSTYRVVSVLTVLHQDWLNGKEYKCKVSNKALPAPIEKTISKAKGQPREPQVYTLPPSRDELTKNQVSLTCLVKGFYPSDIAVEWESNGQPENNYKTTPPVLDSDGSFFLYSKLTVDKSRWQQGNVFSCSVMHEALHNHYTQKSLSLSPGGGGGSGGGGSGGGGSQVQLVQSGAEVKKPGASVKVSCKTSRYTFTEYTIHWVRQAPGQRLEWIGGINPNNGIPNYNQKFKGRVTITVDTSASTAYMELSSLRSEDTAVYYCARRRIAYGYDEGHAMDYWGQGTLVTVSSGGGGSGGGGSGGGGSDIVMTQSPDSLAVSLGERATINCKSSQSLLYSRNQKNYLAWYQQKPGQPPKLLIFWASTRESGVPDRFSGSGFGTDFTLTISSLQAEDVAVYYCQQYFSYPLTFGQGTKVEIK
notes: also called ADT1-4-2 × FAP alpha; Vδ1-FAPα bispecific antibody

Kd [8]: 0.026 nM
EC50 (read off the curve) [9]: ~0.5 nM
Kd (Recombinant human MSLN): 0.87 nM
B3: Anti-Vδ1xMSLN (ADT1-4-2xMSLN) bispecific antibody (bispecific antibody, human IgG1, kappa)
light: DIQMTQSPPALSASVGDRVTITCRASQDINDWLAWYQHKPGKAPKLLIYDASSLESGVPLRFSGSGSGTEFTLTISSLQPDDFATYYCQQKYSAPQVTFGQGTRLEIKRTVAAPSVFIFPPSDEQLKSGTASVVCLLNNFYPREAKVQWKVDNALQSGNSQESVTEQDSKDSTYSLSSTLTLSKADYEKHKVYACEVTHQGLSSPVTKSFNRGEC
heavy: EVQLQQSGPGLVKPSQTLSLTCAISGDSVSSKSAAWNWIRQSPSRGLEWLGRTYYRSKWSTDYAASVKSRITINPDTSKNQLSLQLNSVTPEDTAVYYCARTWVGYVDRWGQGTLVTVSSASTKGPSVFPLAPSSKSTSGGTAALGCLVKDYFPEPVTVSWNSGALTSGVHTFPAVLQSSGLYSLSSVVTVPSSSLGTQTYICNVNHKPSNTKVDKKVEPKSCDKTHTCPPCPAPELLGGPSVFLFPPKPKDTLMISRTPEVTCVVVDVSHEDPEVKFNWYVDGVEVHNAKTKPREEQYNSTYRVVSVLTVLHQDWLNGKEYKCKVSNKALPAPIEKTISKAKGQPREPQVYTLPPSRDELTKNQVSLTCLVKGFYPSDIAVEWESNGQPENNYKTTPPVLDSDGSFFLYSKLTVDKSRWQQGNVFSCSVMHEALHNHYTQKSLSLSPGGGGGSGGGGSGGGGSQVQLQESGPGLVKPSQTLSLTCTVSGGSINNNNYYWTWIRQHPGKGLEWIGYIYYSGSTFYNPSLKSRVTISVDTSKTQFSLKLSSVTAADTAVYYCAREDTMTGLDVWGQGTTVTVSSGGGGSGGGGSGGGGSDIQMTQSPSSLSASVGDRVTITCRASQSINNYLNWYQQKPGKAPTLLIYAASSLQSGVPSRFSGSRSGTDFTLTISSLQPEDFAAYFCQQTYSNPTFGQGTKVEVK
notes: also called ADT1-4-2 × MSLN; MSLN-Vδ1 bispecific antibody

Second part, the binder before the results:

B4: Anti-Vδ1xAnti-PD-1 (ADT1-4-2xpembrolizumab) bispecific antibody (bispecific antibody, human IgG1, kappa)
light: EIVLTQSPATLSLSPGERATLSCRASKGVSTSGYSYLHWYQQKPGQAPRLLIYLASYLESGVPARFSGSGSGTDFTLTISSLEPEDFAVYYCQHSRDLPLTFGGGTKVEIKRTVAAPSVFIFPPSDEQLKSGTASVVCLLNNFYPREAKVQWKVDNALQSGNSQESVTEQDSKDSTYSLSSTLTLSKADYEKHKVYACEVTHQGLSSPVTKSFNRGEC
heavy: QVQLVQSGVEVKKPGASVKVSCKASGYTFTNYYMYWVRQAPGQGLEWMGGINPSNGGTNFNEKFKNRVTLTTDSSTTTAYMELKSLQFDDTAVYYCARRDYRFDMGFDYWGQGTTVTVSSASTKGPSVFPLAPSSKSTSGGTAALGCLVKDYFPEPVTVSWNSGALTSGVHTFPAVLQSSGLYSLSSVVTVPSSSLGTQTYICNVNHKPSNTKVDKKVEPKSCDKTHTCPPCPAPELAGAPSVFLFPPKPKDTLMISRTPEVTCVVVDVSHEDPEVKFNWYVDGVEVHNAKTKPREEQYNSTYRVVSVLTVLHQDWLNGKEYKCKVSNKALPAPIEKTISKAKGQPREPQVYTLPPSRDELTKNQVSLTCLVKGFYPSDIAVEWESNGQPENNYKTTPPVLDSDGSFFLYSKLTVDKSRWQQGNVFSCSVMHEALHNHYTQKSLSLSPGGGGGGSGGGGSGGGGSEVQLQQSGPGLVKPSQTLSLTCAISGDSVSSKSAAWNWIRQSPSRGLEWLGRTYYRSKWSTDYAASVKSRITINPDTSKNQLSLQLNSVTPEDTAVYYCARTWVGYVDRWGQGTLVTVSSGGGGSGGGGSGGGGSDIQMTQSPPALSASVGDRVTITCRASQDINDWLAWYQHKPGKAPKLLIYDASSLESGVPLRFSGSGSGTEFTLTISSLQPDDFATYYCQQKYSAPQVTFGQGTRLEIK
notes: also called PD-1xADT1-4-2; Vδ1-PD-1 bispecific antibody
Kd [10]: 1.5 nM
EC50 (read off the curve), PD-1/PD-L1 blockade reporter assay [11]: ~1 nM
Kd (Recombinant human PD-1): 0.9 nM
EC50 (read off the curve) [12]: ~0.7 nM

B5: 1245_P02_G04 (antibody, IgG1, V domains shown)
VH: QVQLQQSGPGLVKPSQTLSLTCAISGDSVSSKSAAWNWIRQSPSRGLEWLGRTYYRSKWSTDYAASVKSRITINPDTSKNQLSLQLNSVTPEDTAVYYCARTWSGYVDVWGQGTLVTVSS
VL: DIQMTQSPPALSASVGDRVTITCRASQDINDWLAWYQHKPGKAPKLLIYDASSLESGVPSRFSGSGSGTEFTLTISSLQPDDFATYYCQQSYSTPQVTFGQGTRLEIK
notes: also called ADT1-4; parental ADT1-4
Kd [13]: 47 nM
Kd [14]: 397 nM
DELFIA signal at 100 nM L1 [15]: 5900 fluorescence units
binding result [16]: no binding (tested: about 300 nM)
TCR downregulation IC50, soluble assay, added in solution [17]: 38.3 nM
Kd [18]: 149 nM
IC50 TCR DR (no THP-1) [19]: 38.2 nM
IC90 TCR DR (noTHP-1) [19]: 72.4 nM
ELISA signal (heat map) [20]: 1200
EC50 [21]: 108 nM
EC50 (read off the curve) [22]: ~0.07 µg/mL
ELISA signal (heat map) [23]: 196
EC50 [24]: 576 nM

B6: ADT1-4-2 (L74S) (antibody, V domains shown)
VH: EVQLQQSGPGLVKPSQTLSLTCAISGDSVSSKSAAWNWIRQSPSRGLEWLGRTYYRSKWSTDYAASVKSRITINPDTSKNQLSLQLNSVTPEDTAVYYCARTWVGYVDRWGQGTLVTVSS
VL: DIQMTQSPPALSASVGDRVTITCRASQDINDWLAWYQHKPGKAPKLLIYDASSLESGVPSRFSGSGSGTEFTLTISSLQPDDFATYYCQQKYSAPQVTFGQGTRLEIKR
notes: Captured on Protein A
Kd [13]: 4 nM
Kd [14]: 61 nM
fold reduction in affinity against ADT1-4-2 [25]: ~11 fold
fold reduction in affinity against ADT1-4-2 [26]: ~23 fold

B7: ADT1-4-1 (antibody, IgG1, V domains shown)
VH: EVQLQQSGPGLVKPSQTLSLTCAISGDSVSSKSAAWNWIRQSPSRGLEWLGRTYYRSKWSTDYAASVKSRITINPDTSKNQLSLQLNSVTPEDTAVYYCARTWVGYADVWGQGTLVTVSS
VL: DIQMTQSPPALSASVGDRVTITCRASQDINDWLAWYQHKPGKAPKLLIYDASSLESGVPLRFSGSGSGTEFTLTISSLQPDDFATYYCQQRYSTPIVTFGQGTRLEIK
notes: IgG1
Kd [27]: 0.08 nM
Kd [28]: 0.08 nM
